Results as given in IntAct's records for PubMed 25910212.
Values belong to the substance of their own block, whether it stands above or below them.

What was measured:
[1] = biological target: tfcp2_human TFCP2 (UniProt Q12800)
[2] = biological target: goga2_human GOLGA2 (UniProt Q08379)
[3] = biological target: T1, cep70_human CEP70 (UniProt Q8NHQ1)
T1 sequence: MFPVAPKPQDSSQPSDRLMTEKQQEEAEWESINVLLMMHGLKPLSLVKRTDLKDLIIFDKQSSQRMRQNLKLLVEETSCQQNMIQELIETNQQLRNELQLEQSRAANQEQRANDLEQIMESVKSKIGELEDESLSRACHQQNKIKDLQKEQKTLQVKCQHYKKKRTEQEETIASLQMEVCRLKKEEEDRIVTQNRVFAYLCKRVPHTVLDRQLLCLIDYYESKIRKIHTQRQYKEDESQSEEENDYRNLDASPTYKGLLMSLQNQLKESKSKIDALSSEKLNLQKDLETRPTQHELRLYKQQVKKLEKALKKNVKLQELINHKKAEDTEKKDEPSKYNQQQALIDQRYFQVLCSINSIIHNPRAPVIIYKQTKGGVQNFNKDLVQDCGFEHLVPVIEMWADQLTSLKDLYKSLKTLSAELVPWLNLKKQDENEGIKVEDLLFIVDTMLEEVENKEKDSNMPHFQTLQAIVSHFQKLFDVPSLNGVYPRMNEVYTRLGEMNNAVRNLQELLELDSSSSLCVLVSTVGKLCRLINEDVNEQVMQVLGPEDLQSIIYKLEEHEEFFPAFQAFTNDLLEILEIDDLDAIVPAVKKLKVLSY

[4] = biological target: tfcp2_human TFCP2 (UniProt Q12800); remark: listed apart in the source
[5] = biological target: T2, fsd2_human FSD2 (UniProt A1L4K1)
T2 sequence: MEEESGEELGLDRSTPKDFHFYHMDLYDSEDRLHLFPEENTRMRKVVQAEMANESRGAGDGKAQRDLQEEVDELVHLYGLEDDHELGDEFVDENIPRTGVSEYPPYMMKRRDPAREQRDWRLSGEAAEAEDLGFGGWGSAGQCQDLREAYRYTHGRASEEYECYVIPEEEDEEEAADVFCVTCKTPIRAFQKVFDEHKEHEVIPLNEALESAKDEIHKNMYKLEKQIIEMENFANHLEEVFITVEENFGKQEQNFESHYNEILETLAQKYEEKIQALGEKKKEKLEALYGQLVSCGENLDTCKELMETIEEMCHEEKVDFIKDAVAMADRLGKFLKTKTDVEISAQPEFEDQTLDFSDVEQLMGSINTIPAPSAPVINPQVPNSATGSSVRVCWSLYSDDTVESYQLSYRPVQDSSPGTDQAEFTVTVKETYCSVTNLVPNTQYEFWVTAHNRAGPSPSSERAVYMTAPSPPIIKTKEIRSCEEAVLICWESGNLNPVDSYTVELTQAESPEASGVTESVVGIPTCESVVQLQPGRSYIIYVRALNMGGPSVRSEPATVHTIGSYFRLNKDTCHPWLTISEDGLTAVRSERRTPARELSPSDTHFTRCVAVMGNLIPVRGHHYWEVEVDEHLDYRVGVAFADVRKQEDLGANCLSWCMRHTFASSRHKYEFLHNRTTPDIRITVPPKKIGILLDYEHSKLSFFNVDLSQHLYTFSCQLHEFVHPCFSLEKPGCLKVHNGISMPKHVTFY

[6] = biological target: MTUS2, Q5JR59-3
[7] = biological target: tsg10_human TSGA10 (UniProt Q9BZW7)
[8] = biological target: hem1_human ALAS1 (UniProt P13196)
[9] = biological target: T3, kash5_human KASH5 (UniProt Q8N6L0)
T3 sequence: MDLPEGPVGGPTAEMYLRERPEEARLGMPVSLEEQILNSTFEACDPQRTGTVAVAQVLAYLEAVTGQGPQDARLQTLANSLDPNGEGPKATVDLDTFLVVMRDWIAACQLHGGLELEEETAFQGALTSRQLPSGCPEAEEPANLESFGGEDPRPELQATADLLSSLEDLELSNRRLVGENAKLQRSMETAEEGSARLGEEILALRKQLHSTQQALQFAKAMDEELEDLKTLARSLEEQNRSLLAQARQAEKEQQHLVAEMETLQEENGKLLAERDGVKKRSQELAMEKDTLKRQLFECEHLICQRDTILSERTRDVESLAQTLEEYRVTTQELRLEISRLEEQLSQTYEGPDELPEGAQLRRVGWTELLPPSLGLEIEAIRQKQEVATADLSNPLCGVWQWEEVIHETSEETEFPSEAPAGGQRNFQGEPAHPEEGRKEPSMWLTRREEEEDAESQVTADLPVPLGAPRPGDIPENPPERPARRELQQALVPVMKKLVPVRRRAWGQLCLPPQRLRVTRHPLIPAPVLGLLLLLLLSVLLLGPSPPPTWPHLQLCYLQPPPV

[10] = biological target: cof2_human CFL2 (UniProt Q9Y281)
[11] = biological target: cap2_human CAP2 (UniProt P40123)
[12] = biological target: T4, efhc2_human EFHC2 (UniProt Q5JST6)
T4 sequence: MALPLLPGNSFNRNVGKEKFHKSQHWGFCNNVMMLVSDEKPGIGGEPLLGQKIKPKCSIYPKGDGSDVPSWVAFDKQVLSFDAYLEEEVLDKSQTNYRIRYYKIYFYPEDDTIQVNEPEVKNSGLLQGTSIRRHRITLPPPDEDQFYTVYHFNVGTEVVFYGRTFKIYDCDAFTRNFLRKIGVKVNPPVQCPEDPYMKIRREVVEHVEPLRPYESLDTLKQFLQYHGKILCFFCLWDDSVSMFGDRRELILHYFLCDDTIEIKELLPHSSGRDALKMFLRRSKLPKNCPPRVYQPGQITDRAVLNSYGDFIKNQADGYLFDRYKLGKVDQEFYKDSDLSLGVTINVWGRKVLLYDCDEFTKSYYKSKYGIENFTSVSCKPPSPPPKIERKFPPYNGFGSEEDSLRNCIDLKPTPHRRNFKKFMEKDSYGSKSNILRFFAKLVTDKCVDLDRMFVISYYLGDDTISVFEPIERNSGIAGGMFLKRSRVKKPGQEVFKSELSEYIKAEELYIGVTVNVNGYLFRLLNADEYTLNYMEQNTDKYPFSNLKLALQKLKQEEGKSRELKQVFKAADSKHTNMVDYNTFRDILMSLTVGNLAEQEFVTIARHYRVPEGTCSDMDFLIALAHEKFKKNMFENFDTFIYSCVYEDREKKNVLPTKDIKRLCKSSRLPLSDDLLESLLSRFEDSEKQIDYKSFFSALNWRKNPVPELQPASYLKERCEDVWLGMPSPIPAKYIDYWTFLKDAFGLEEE

[13] = biological target: ifit3_human IFIT3 (UniProt O14879)
[14] = biological target: syce1_human SYCE1 (UniProt Q8N0S2)
[15] = biological target: TNNT1, P13805-3
[16] = biological target: kxdl1_human KXD1 (UniProt Q9BQD3)
[17] = biological target: goga2_human GOLGA2 (UniProt Q08379); remark: listed apart in the source
[18] = biological target: ifit3_human IFIT3 (UniProt O14879); remark: listed apart in the source
[19] = biological target: tfpt_human TFPT (UniProt P0C1Z6)
[20] = biological target: md1l1_human MAD1L1 (UniProt Q9Y6D9)
[21] = biological target: CAGE1, Q8TC20-4
[22] = biological target: T5, tmm79_human TMEM79 (UniProt Q9BSE2)
T5 sequence: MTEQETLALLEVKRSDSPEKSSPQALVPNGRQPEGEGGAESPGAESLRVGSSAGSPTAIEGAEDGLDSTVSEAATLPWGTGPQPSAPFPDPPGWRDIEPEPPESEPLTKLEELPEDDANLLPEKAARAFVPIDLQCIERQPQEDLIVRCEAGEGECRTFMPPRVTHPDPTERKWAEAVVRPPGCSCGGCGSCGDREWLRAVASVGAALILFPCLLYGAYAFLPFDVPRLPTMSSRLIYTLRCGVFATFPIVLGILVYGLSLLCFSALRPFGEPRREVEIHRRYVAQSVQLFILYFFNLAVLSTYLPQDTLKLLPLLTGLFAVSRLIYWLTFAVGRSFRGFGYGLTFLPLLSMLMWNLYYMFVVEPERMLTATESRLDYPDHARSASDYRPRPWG

[23] = biological target: T6, smim3_human SMIM3 (UniProt Q9BZL3)
T6 sequence: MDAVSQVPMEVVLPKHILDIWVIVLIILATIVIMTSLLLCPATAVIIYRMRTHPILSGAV

[24] = biological target: T6, smim3_human SMIM3; remark: listed apart in the source
[25] = biological target: T7, SYNE4, Q8N205-2
T7 sequence: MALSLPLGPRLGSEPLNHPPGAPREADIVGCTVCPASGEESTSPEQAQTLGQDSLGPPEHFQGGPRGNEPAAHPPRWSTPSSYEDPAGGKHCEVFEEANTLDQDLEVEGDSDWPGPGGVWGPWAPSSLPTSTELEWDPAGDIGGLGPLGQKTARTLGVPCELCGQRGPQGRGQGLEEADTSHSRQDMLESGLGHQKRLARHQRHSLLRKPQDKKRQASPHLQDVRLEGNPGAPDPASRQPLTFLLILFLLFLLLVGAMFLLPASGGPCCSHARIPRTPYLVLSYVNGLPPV

[26] = biological target: T5, tmm79_human TMEM79; remark: listed apart in the source

Chain of tfcp2_human TFCP2 (Q12800 whole entry): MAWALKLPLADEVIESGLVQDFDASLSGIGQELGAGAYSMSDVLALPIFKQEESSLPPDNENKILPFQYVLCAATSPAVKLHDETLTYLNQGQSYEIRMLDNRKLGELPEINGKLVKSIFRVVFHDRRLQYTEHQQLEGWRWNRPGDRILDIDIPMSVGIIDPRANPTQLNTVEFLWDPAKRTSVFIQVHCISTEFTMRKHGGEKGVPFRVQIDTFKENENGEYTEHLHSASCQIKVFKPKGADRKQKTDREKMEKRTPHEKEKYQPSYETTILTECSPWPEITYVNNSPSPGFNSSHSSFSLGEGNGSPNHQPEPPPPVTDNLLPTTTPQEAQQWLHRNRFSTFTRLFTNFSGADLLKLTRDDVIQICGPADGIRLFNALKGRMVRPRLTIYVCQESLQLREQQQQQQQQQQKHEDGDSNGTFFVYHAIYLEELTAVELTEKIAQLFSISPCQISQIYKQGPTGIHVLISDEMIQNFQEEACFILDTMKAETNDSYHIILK
Chain of goga2_human GOLGA2 (Q08379 whole entry): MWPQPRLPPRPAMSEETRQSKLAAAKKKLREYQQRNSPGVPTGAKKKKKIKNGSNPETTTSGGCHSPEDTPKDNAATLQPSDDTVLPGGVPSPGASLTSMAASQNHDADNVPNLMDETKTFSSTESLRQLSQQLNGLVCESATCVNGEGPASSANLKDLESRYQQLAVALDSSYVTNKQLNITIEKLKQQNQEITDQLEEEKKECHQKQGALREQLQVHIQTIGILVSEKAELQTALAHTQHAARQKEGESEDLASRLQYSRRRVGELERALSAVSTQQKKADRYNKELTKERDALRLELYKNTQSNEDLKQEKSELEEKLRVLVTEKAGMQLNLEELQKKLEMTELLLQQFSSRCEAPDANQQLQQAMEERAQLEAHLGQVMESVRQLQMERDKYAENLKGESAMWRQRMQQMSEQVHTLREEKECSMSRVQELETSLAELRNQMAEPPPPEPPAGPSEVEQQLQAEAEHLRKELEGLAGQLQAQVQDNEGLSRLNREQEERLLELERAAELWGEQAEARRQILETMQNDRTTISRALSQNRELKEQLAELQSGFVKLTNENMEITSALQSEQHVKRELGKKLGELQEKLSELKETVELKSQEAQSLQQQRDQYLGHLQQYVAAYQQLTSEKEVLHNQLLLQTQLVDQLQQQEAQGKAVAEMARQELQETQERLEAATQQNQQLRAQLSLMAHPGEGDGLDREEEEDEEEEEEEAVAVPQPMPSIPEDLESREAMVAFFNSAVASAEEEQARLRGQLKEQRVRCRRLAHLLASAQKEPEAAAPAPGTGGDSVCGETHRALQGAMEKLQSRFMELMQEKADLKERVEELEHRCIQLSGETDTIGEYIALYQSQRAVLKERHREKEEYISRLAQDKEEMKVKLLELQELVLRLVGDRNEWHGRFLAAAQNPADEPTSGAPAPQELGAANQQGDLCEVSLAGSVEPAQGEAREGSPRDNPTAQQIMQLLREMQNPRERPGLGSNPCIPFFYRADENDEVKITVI
Chain of Tropomyosin alpha-1 chain (Homo sapiens), P09493-10 E40K (P09493 other isoform, or with tags, fused parts or gaps E40K): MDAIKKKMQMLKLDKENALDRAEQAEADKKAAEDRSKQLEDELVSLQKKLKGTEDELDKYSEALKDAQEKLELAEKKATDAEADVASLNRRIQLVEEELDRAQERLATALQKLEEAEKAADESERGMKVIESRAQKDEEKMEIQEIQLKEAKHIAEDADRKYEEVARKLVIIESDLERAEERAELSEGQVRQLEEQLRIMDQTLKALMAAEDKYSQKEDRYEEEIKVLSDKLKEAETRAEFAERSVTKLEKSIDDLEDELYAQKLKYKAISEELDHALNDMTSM
Chain of hem1_human ALAS1 (P13196 whole entry): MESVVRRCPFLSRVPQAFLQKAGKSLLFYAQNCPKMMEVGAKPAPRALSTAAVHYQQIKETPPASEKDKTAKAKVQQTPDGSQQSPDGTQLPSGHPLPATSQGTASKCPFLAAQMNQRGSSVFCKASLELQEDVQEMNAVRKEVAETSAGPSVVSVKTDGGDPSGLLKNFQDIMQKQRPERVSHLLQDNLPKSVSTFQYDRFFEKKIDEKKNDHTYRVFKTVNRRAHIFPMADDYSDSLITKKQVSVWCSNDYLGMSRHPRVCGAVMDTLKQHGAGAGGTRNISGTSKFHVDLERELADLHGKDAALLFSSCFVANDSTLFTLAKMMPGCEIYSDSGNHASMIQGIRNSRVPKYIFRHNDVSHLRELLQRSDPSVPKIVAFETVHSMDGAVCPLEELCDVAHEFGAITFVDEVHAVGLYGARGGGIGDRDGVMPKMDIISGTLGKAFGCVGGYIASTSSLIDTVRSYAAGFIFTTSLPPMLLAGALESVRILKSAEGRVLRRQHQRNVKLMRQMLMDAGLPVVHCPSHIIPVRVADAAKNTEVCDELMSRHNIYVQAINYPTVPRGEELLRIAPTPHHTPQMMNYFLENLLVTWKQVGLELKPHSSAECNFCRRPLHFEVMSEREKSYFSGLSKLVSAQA
Chain of MTUS2, Q5JR59-3 (Q5JR59 other isoform, or with tags, fused parts or gaps): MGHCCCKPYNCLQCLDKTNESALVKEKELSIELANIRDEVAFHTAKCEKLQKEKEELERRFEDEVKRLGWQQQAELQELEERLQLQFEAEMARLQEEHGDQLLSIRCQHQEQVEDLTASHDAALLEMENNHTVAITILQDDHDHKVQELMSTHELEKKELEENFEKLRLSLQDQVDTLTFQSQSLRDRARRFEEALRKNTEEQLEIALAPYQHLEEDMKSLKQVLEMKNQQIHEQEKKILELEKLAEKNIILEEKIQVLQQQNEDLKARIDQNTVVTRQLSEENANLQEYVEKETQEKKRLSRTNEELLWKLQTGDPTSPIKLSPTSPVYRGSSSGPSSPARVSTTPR
Chain of ifit3_human IFIT3 (O14879 whole entry): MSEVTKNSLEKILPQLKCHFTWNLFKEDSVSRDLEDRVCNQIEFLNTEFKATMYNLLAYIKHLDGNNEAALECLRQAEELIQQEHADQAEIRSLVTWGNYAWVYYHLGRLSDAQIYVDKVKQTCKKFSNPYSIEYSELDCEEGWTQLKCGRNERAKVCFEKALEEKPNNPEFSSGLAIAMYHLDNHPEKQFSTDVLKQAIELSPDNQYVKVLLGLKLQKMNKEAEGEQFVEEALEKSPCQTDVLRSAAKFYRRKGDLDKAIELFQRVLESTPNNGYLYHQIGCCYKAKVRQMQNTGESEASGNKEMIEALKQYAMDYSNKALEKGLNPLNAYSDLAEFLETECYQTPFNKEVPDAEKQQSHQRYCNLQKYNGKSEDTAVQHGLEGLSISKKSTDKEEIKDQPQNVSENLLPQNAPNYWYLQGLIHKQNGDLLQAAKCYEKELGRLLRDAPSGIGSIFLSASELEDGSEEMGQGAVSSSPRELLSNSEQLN
Chain of tsg10_human TSGA10 (Q9BZW7 whole entry): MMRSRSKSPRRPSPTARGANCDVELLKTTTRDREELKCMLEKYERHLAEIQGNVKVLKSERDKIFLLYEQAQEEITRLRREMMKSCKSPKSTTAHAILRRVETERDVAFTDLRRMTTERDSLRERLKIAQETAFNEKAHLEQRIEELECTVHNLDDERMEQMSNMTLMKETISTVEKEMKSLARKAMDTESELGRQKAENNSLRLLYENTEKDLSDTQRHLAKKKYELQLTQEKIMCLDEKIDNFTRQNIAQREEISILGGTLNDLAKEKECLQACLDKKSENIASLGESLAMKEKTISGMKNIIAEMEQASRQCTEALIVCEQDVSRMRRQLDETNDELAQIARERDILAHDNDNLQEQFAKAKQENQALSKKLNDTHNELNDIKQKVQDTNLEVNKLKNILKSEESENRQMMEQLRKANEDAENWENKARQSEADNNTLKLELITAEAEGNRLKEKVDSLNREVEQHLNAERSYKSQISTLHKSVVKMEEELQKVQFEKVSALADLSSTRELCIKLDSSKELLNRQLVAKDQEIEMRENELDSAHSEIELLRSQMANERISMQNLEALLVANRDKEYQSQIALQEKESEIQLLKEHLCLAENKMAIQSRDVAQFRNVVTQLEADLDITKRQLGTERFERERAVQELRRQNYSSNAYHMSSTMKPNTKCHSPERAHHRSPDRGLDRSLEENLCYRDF
Chain of Carbonic anhydrase 1 (Homo sapiens), P00915 H68R (P00915 whole entry H68R): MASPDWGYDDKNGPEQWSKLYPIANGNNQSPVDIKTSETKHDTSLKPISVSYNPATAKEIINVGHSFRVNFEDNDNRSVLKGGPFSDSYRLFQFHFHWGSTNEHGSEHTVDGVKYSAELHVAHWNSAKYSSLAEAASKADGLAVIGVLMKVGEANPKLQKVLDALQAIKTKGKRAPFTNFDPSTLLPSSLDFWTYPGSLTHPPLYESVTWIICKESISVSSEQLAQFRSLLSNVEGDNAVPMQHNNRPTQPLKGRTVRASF
Chain of md1l1_human MAD1L1 (Q9Y6D9 whole entry): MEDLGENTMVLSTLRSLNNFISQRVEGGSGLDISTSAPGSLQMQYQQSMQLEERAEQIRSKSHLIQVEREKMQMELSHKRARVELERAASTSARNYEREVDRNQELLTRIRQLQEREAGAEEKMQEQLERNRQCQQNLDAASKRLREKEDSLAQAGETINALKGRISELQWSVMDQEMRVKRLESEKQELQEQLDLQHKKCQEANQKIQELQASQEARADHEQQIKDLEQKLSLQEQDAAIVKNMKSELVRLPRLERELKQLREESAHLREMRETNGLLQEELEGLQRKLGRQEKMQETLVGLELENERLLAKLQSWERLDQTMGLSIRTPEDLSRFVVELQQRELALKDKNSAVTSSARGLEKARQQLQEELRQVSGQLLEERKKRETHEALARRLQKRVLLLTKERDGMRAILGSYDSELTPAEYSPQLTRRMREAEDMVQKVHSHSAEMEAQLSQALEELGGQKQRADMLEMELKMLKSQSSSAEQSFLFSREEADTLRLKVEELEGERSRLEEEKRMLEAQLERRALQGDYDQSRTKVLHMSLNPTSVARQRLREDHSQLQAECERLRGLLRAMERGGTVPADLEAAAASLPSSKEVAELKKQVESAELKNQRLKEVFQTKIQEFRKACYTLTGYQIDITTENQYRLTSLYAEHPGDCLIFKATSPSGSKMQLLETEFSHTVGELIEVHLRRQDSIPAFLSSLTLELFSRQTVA

Substance: Carbonic anhydrase 1 (Homo sapiens), P00915 H68R
effect of a mutation on the interaction [1]: with no effect

Substance: Voltage-dependent L-type calcium channel subunit beta-4 (Homo sapiens) (from UniProt O00305) C104F
effect of a mutation on the interaction [12]: with no effect

Substance: Carbonic anhydrase 1 (Homo sapiens), P00915 R247H
effect of a mutation on the interaction [1]: with no effect

Substance: Tropomyosin alpha-1 chain (Homo sapiens), P09493-10 E40K
effect of a mutation on the interaction [13]: with no effect
effect of a mutation on the interaction [14]: with no effect
effect of a mutation on the interaction [15]: with no effect
effect of a mutation on the interaction [16]: with no effect
effect of a mutation on the interaction [17]: disrupting interaction strength
effect of a mutation on the interaction [18]: causing an interaction
effect of a mutation on the interaction [19]: with no effect
effect of a mutation on the interaction [20]: with no effect
effect of a mutation on the interaction [21]: with no effect

Substance: Surfactant protein C (Homo sapiens) (from UniProt P11686) C189G
effect of a mutation on the interaction [22]: with no effect
effect of a mutation on the interaction [23]: causing an interaction
effect of a mutation on the interaction [24]: with no effect
effect of a mutation on the interaction [25]: with no effect
effect of a mutation on the interaction [26]: disrupting interaction strength

Continued, values first:

effect of a mutation on the interaction [2]: disrupting interaction strength
effect of a mutation on the interaction [3]: disrupting interaction strength
effect of a mutation on the interaction [4]: disrupting interaction strength
effect of a mutation on the interaction [5]: disrupting interaction strength
effect of a mutation on the interaction [6]: disrupting interaction strength
effect of a mutation on the interaction [7]: disrupting interaction strength
effect of a mutation on the interaction [8]: disrupting interaction strength
effect of a mutation on the interaction [9]: disrupting interaction strength
Substance: Parafibromin (Homo sapiens) (from UniProt Q6P1J9) L64P

effect of a mutation on the interaction [10]: disrupting interaction strength
effect of a mutation on the interaction [11]: disrupting interaction strength
Substance: Actin, cytoplasmic 1 (Homo sapiens) (from UniProt P60709) E364K

effect of a mutation on the interaction [12]: with no effect
Substance: Voltage-dependent L-type calcium channel subunit beta-4 (Homo sapiens) (from UniProt O00305) R468Q

effect of a mutation on the interaction [2]: disrupting interaction strength
effect of a mutation on the interaction [3]: disrupting interaction strength
effect of a mutation on the interaction [4]: disrupting interaction strength
effect of a mutation on the interaction [5]: disrupting interaction strength
effect of a mutation on the interaction [6]: disrupting interaction strength
effect of a mutation on the interaction [7]: disrupting interaction strength
effect of a mutation on the interaction [8]: disrupting interaction strength
effect of a mutation on the interaction [9]: disrupting interaction strength
Substance: Parafibromin (Homo sapiens) (from UniProt Q6P1J9) R91P

effect of a mutation on the interaction [22]: with no effect
effect of a mutation on the interaction [23]: causing an interaction
effect of a mutation on the interaction [24]: with no effect
effect of a mutation on the interaction [25]: with no effect
effect of a mutation on the interaction [26]: disrupting interaction strength
Substance: Surfactant protein C (Homo sapiens) (from UniProt P11686) Y104H
